# According to patent publication US20180155451A1 (published 2018):
# T1: FcγRIIb (human, UniProt P31994 43-217)
# T1 construct: extracellular domain; also called FcgRIIb; 2b
# T1 sequence (looked up): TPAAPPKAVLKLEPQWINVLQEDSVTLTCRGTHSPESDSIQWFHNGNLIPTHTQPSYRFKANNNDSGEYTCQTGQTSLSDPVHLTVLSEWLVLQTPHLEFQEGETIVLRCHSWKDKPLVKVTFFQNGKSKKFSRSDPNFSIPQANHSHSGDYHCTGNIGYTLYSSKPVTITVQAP
# T2: FcγRIIb (human, UniProt P31994 43-217)
# T2 construct: extracellular domain; also called 2b
# T2 sequence (looked up): T1 sequence (looked up)
# T3: FcγRIIa H (human, UniProt P12318 34-217)
# T3 construct: extracellular domain; also called FcγRIIa type H; 2aH
# T3 sequence (looked up): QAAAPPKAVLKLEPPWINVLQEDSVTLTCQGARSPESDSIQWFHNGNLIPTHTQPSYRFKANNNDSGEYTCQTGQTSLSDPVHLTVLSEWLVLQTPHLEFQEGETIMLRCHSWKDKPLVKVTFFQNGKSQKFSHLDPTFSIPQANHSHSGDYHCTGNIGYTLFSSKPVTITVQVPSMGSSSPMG
# B1: GpH7-A5/GpH7-B3 variant (G236_07I)/GpL16-k0 (antibody, human IgG1, kappa)
# heavy 1: not shown
# heavy 2: not shown
# light: DIVMTQSPLSLPVTPGEPASISCQASESLVHSNRNTYLHWYLQKPGQSPQLLIYKVSNRFSGVPDRFSGSGSGTDFTLKISRVEAEDVGVYYCSQNTHVPPTFGQGTKVEIERTVAAPSVFIFPPSDEQLKSGTASVVCLLNNFYPREAKVQWKVDNALQSGNSQESVTEQDSKDSTYSLSSTLTLSKADYEKHKVYACEVTHQGLSSPVTKSFNRGEC
# notes: IgG1 heterodimer, mutation in the GpH7-B3 chain only; also called He Ab
# B2: GpH7-A5/GpH7-B3 variant (H268_04F)/GpL16-k0 (antibody, human IgG1, kappa)
# heavy 1: not shown
# heavy 2: not shown
# light: B1 light
# notes: as for B1
# B3: GpH7-A5/GpH7-B3 variant (G237_05P)/GpL16-k0 (antibody, human IgG1, kappa)
# heavy 1: not shown
# heavy 2: not shown
# light: B1 light
# notes: as for B1
# B4: GpH7-A5/GpH7-B3 variant (G236_11K)/GpL16-k0 (antibody, human IgG1, kappa)
# heavy 1: not shown
# heavy 2: not shown
# light: B1 light
# notes: as for B1
# B5: GpH7-A5/GpH7-B3 variant (G237_03V)/GpL16-k0 (antibody, human IgG1, kappa)
# heavy 1: not shown
# heavy 2: not shown
# light: B1 light
# notes: as for B1
# B6: GpH7-A5/GpH7-B3 variant (L235_12R)/GpL16-k0 (antibody, human IgG1, kappa)
# heavy 1: not shown
# heavy 2: not shown
# light: B1 light
# notes: as for B1
# B7: GpH7-A5/GpH7-B3 variant (G236_12R)/GpL16-k0 (antibody, human IgG1, kappa)
# heavy 1: not shown
# heavy 2: not shown
# light: B1 light
# notes: as for B1
# B8: GpH7-A5/GpH7-B3 variant (E269_03V)/GpL16-k0 (antibody, human IgG1, kappa)
# heavy 1: not shown
# heavy 2: not shown
# light: B1 light
# notes: as for B1
# B9: GpH7-A5/GpH7-B3 variant (G236_06M)/GpL16-k0 (antibody, human IgG1, kappa)
# heavy 1: not shown
# heavy 2: not shown
# light: B1 light
# notes: as for B1
# B10: GpH7-A5/GpH7-B3 variant (G236_05P)/GpL16-k0 (antibody, human IgG1, kappa)
# heavy 1: not shown
# heavy 2: not shown
# light: B1 light
# notes: as for B1
# B11: GpH7-A5/GpH7-B3 variant (G236_14T)/GpL16-k0 (antibody, human IgG1, kappa)
# heavy 1: not shown
# heavy 2: not shown
# light: B1 light
# notes: as for B1
# B12: GpH7-A5/GpH7-B3 variant (H268_11K)/GpL16-k0 (antibody, human IgG1, kappa)
# heavy 1: not shown
# heavy 2: not shown
# light: B1 light
# notes: as for B1
# B13: GpH7-A5/GpH7-B3 variant (G236_15Y)/GpL16-k0 (antibody, human IgG1, kappa)
# heavy 1: not shown
# heavy 2: not shown
# light: B1 light
# notes: as for B1
# B14: GpH7-A5/GpH7-B3 variant (E269_15Y)/GpL16-k0 (antibody, human IgG1, kappa)
# heavy 1: not shown
# heavy 2: not shown
# light: B1 light
# notes: as for B1
# B15: GpH7-A5/GpH7-B3 variant (E269_08L)/GpL16-k0 (antibody, human IgG1, kappa)
# heavy 1: not shown
# heavy 2: not shown
# light: B1 light
# notes: as for B1
# B16: GpH7-A5/GpH7-B3 variant (H268_08L)/GpL16-k0 (antibody, human IgG1, kappa)
# heavy 1: not shown
# heavy 2: not shown
# light: B1 light
# notes: as for B1
# B17: GpH7-A5/GpH7-B3 variant (E269_14T)/GpL16-k0 (antibody, human IgG1, kappa)
# heavy 1: not shown
# heavy 2: not shown
# light: B1 light
# notes: as for B1
# B18: GpH7-A5/GpH7-B3 variant P331_15Y/GpL16-k0 (antibody, human IgG1, kappa)
# heavy 1: not shown
# heavy 2: not shown
# light: B1 light
# notes: heterodimerized IgG1, mutation in one H chain only; also called He Ab
# B19: GpH7-A5/GpH7-B3 variant P331_16H/GpL16-k0 (antibody, human IgG1, kappa)
# heavy 1: not shown
# heavy 2: not shown
# light: B1 light
# notes: as for B18
# B20: GpH7-A5/GpH7-B3 variant P331_07I/GpL16-k0 (antibody, human IgG1, kappa)
# heavy 1: not shown
# heavy 2: not shown
# light: B1 light
# notes: as for B18
# B21: GpH7-A5/GpH7-B3 variant P331_20W/GpL16-k0 (antibody, human IgG1, kappa)
# heavy 1: not shown
# heavy 2: not shown
# light: B1 light
# notes: as for B18
# B22: GpH7-A5/GpH7-B3 variant P331_10E/GpL16-k0 (antibody, human IgG1, kappa)
# heavy 1: not shown
# heavy 2: not shown
# light: B1 light
# notes: as for B18
# Biological target: T4, FcγRIa (human, UniProt P12314 16-292)
# T4 construct: extracellular domain; also called FcgRI; 1a
# T4 sequence (P12314 16-292): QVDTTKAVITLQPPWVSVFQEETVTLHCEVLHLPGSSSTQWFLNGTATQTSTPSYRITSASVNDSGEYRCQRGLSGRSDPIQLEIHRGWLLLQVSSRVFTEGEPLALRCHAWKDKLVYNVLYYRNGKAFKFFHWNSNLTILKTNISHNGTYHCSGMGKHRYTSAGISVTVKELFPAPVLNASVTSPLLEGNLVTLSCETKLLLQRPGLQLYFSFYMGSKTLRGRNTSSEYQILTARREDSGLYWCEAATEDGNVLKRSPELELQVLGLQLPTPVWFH
# Test: SPR, captured antibody; relative to GpH7-A5/GpH7-B3/GpL16-k0
row,He/Con_1a,Binder
1,"87.5 relative, HeCon Ab = 100",B1
2,"106 relative, HeCon Ab = 100",B2
3,"44.5 relative, HeCon Ab = 100",B3
4,"71 relative, HeCon Ab = 100",B4
5,"78.5 relative, HeCon Ab = 100",B5
6,"78 relative, HeCon Ab = 100",B6
7,"63.1 relative, HeCon Ab = 100",B7
8,"103 relative, HeCon Ab = 100",B8
9,"96.7 relative, HeCon Ab = 100",B9
10,"77 relative, HeCon Ab = 100",B10
11,"92.2 relative, HeCon Ab = 100",B11
12,"106 relative, HeCon Ab = 100",B12
13,"92.5 relative, HeCon Ab = 100",B13
14,"106 relative, HeCon Ab = 100",B14
15,"104 relative, HeCon Ab = 100",B15
16,"107 relative, HeCon Ab = 100",B16
17,"106 relative, HeCon Ab = 100",B17

# Biological target: T1, FcγRIIb
# Test: as above
row,He/Con_2b,Binder
1,"31 relative, HeCon Ab = 100",B1
2,"89.6 relative, HeCon Ab = 100",B2
3,"24.6 relative, HeCon Ab = 100",B3
4,"49.8 relative, HeCon Ab = 100",B4
5,"61.4 relative, HeCon Ab = 100",B5
6,"6.8 relative, HeCon Ab = 100",B7
7,"45.1 relative, HeCon Ab = 100",B8
8,"45.5 relative, HeCon Ab = 100",B9
9,"19 relative, HeCon Ab = 100",B10
10,"57.8 relative, HeCon Ab = 100",B11
11,"83 relative, HeCon Ab = 100",B12
12,"39.5 relative, HeCon Ab = 100",B13
13,"44.7 relative, HeCon Ab = 100",B14
14,"42.9 relative, HeCon Ab = 100",B15
15,"67.8 relative, HeCon Ab = 100",B16
16,"50.6 relative, HeCon Ab = 100",B17

# Biological target: T2, FcγRIIb
# Test: SPR (Biacore), relative binding vs GpH7-A5/GpH7-B3/GpL16-k0
# Experimental: (§1) The heterodimerized antibodies He Abs in which one of the H chains was introduced with an alteration were assayed for their binding activities to each activating FcγR and inhibitory FcγR according to the method described in Example 4. […] The activating FcγRs in FIGS. 26, 27, 28, and 29 are FcγRIa, FcγRIIa (R), FcγRIIa (H), and FcγRIIIa, respectively.
# (§2) Analysis of interaction between objective antibody and the FcγR was carried out using Biacore T100 (GE Healthcare). HBS-EP+ (GE Healthcare) was used as the running buffer, and the measurement temperature was set to 25° C. Chips produced by immobilizing the antigen peptide by the amine coupling method to a Series S Sencor Chip CM5 (GE Healthcare), or alternatively, chips produced by allowing preliminarily biotinylated antigen peptides to interact with and immobilize onto a Series S Sensor Chip SA (certified) (GE Healthcare) were used. Antibodies of interest were captured onto an antigen peptide-immobilized chip, and allowed to interact to each FcγR diluted with running buffer. To regenerate and repeatedly use the chip, the antibodies captured on the chip were washed off by reacting 10 mM glycine-HCl, pH 1.5.
row,He/Con_2b,Binder
1,114 % of control He Ab (=100),B18
2,116 % of control He Ab (=100),B19
3,114 % of control He Ab (=100),B20
4,111 % of control He Ab (=100),B21
5,116 % of control He Ab (=100),B22

# Biological target: T3, FcγRIIa H
# Test: as above
# Experimental: as §1, §2
row,He/Con_2aH,Binder
1,86 % of control He Ab (=100),B18
2,84.5 % of control He Ab (=100),B19
3,77.4 % of control He Ab (=100),B20
4,82.8 % of control He Ab (=100),B21
5,87.1 % of control He Ab (=100),B22
